Results published in paper PMC9084231.

Key:
Protein S (Homo sapiens) = Protein S (Homo sapiens) (UniProt P07225); conditions: cited from earlier work
[1] = molecular target: PRP6-HO7 (Proline-rich Protein domain CCP6 heptamerized) (human) (UniProt P04003); assay: SDS-PAGE under reducing and non-reducing conditions; 4-12% gradient SDS-PAGE of the purified proteins, Coomassie (Blue Safe) staining and Western blot with anti-6xHis and anti-C4BP α-chain antibodies; reduced against non-reduced size

Sequence of UniProt P07225 (P07225 42-676): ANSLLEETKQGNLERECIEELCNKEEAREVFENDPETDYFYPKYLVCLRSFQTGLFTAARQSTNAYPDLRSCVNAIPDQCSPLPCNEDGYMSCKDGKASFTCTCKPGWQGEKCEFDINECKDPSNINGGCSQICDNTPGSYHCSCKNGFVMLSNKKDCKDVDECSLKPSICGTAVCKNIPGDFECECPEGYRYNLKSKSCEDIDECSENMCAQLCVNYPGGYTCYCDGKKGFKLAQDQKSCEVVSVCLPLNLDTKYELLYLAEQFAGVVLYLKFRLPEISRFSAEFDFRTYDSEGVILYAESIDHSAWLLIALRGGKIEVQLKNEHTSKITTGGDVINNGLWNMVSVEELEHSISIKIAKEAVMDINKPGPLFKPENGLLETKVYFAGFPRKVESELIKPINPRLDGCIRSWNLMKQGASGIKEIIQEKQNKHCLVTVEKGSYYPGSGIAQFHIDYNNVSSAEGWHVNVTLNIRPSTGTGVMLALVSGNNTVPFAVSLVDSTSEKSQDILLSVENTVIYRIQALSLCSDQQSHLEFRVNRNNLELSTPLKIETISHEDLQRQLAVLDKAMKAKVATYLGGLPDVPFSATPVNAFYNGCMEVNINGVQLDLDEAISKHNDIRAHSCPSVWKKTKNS

| Substance | Kd (Protein S (Homo sapiens)) | stoichiometry N [1] |
| --- | --- | --- |
| C4BP beta-chain CCP1 (from UniProt P20851) | 0.1 nM |  |
| PRP6-HO7 (Proline-rich Protein domain CCP6 heptamerized) (from UniProt P04003 540-597) |  | 7 |
